From patent US20260234242A1 (HAINAN SIMCERE ZAIMING PHARMACEUTICAL, published 2026)

T1: monkey CDH6 protein (cynoCDH6 ECD-his) (monkey (cyno), UniProt A0A2K5TW62 19-615)
T1 construct: range 19-615; also called Cyno CDH6-his; not shown: his tag
T1 sequence: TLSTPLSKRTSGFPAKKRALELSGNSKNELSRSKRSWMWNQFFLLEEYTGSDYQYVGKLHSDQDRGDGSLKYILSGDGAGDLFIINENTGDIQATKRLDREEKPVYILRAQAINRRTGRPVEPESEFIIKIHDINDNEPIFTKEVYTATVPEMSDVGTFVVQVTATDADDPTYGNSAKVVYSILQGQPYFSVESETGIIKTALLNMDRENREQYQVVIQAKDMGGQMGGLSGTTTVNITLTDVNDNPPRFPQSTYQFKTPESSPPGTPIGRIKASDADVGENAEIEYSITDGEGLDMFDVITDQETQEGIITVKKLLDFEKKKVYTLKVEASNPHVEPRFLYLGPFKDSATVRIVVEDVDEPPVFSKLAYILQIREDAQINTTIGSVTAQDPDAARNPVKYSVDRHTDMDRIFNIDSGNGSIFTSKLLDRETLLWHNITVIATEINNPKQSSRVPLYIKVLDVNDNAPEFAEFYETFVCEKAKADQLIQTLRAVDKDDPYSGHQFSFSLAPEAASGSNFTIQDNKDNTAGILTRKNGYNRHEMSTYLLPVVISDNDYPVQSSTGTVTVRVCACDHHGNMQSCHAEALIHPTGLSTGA

T2: human CDH6 with EC1 removed, on HEK293T cells (HEK293T-hCDH6-EC1 deletion) (human, UniProt P55285 160-790)
T2 construct: Signal peptide not removed here
T2 sequence: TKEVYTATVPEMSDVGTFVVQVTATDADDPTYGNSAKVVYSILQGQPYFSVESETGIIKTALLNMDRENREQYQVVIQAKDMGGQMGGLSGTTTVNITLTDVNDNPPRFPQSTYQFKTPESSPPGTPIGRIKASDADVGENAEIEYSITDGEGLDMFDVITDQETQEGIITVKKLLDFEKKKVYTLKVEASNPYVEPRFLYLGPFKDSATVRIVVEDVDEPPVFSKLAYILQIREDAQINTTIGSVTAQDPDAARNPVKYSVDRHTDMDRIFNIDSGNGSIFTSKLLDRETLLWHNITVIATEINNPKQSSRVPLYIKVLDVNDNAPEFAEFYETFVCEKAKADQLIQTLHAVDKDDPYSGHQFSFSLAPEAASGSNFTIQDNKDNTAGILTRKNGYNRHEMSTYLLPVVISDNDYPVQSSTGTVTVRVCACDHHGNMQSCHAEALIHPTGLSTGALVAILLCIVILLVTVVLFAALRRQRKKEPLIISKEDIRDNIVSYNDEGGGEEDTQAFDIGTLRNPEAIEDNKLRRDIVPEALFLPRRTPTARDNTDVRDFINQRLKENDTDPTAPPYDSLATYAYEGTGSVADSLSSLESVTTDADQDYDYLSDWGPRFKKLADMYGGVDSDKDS

T3: human CDH6 with EC4 removed, on HEK293T cells (HEK293T-hCDH6-EC4 deletion) (human, UniProt P55285 54-790)
T3 construct: Signal peptide not removed here
T3 sequence: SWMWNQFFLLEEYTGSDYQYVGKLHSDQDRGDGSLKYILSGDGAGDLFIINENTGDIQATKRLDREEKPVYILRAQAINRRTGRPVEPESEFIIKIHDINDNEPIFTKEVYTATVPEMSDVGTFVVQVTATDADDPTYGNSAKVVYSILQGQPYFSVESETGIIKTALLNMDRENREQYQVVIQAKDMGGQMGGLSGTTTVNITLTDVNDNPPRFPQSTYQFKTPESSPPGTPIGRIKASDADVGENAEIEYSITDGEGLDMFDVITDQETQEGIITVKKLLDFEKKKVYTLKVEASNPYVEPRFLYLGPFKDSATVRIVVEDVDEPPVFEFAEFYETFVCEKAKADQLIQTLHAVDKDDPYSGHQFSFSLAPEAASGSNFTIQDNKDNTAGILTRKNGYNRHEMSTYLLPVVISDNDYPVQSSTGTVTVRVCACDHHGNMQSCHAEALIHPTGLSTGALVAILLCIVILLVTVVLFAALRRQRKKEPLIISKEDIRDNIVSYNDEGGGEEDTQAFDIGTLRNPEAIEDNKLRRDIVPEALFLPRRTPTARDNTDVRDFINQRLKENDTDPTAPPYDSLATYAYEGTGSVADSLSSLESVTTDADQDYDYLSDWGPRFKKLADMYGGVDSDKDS


Assays:
[1] = biological target: T1, monkey CDH6 protein (cynoCDH6 ECD-his); assay: ELISA, coated antigen
Method: Human CDH6 protein (hCDH6 ECD-his, conventionally synthesized), monkey CDH6 protein (cynoCDH6 ECD-his, conventionally synthesized; the cynoCDH6 ECD sequence was derived from Uniprot #A0A2K5TW62 (19-615)), and murine CDH6 protein (mCDH6 ECD-his, conventionally synthesized; the mCDH6 ECD sequence was derived from Uniprot #P97326 (19-615)) were diluted with PBS to a final concentration of 1 μg/mL, and added to a 96-well ELISA plate at 100 μL/well. The plate was incubated at 4° C. overnight. The next day, the plate was washed 3 times with a plate washing solution (PBS+0.01% (v/v) Tween 20), and a blocking buffer (PBS+0.01% (v/v) Tween 20+2% (w/w) BSA) was added for blocking at room temperature for 2 h. The blocking buffer was discarded, and the plate was washed 3 times. The chimeric antibodies were diluted with 1% BSA+PBS (purchased from Cytiva, Cat. No. SH30264.01) and added to the 96-well plate at 50 μL/well. After incubation at 37° C. for 2 h, the plate was washed 3 times with a plate washing solution. […] The plate was incubated at 37° C. for 1 h and then washed 5 times with a plate washing solution. A TMB substrate (purchased from Seracare, Cat. No. 5120-0077) was added at 50 μL/well and incubated at room temperature for 10 min, then a stop solution (1.0 N HCl) was added at 50 μL/well. OD450 nm values were read using a microplate reader (Biotek). Analysis was performed by the GraphPad Prism software, data were fitted, and EC50 values were calculated. The chimeric antibodies tested all had strong binding to the human CDH6 protein, the monkey CDH6 protein, and the murine CDH6 protein.

[2] = biological target: T2, human CDH6 with EC1 removed, on HEK293T …; assay: FACS, HEK293T-hCDH6-EC1 deletion cells
[3] = biological target: T3, human CDH6 with EC4 removed, on HEK293T …; assay: FACS, HEK293T-hCDH6-EC4 deletion cells
Description: To confirm the binding epitope of the CDH6 antibody, the sequences after removal of these 5 regions were constructed into pcDNA3.1 vectors (purchased from Youbio, Cat. No. VT1001), and transfected into HEK293T cells (purchased from Cell Bank of Chinese Academy of Sciences, Cat. No. SCSP-502) to obtain 5 CDH6 truncated cell lines: HEK293T-hCDH6-EC1 deletion, HEK293T-hCDH6-EC2 deletion, HEK293T-hCDH6-EC3 deletion, HEK293T-hCDH6-EC4 deletion, and HEK293T-hCDH6-EC5 deletion.
The binding activity of the CDH6 chimeric antibodies to these 5 cell lines was assayed by FACS.

Binder | EC50 [1] [nM] | Max OD450 [1] [OD450] | Max MFI [2] [MFI] | Max MFI [3] [MFI]
CHI-CDH6-9 (antibody, human IgG1, kappa, V domains shown, also called chimeric antibody of murine CDH6-9) VH: QVQLQQPGAELVKPGASVKLSCKASGYTFTGYWMHWVRQRPGQGLEWIGEINPNNGGTNCNEQFKNKATLTVDKSSSTAYMQLSSLTSEDSAVFYCTISFGNYLFFDVWGAGTTVTVSS VL: DIQMTQSPASLAASVGETITITCQASENIYFSLAWYQQKQGKSPQLLIYNANTLEDGVPSRFVGSGSGTQYSMKINSIQPEDTATYFCDQTYDFPWTFGGGTKLEIKR | 0.026 | 2.78 |  | 
CHI-CDH6-6 (antibody, human IgG1, kappa, V domains shown, also called CHI-hCDH6-6; chimeric antibody of murine CDH6-6) VH: EVQLQQSGPELVKPGDSVKMSCKASGYTFTDYYMAWVRQSHRKSLEWIGYIFPNSGGTDYSQKFKGKATLTVDKSSSTVYMELHSLTSEDSAVYYCARELGADYGDYYAMDHWGQGTSVSVSS VL: DIQMTQSPASLSASVGETVTITCRASENIDSYLAWYQQKQGKSPQLLVYSATLLADGVPSRFSGSGSGTQYSLKINSLKSEDVARYYCQHYYRTPPTFGSGTKLEIKR | 0.03 | 2.24 |  | 
CHI-CDH6-8 (antibody, human IgG1, kappa, V domains shown, also called chimeric antibody of murine CDH6-8) VH: EVQLQQSGPELVKPGDSVKMSCKASGYTFTDYYMAWIKQNHGKSLEWIGYIYPNNGGTDYNQKFRGKATLTVDKSSSAAYMELHSLTSEDSAVYYCAREIGTLYGDYYAMDYWGQGTSVTVSS VL: DIQMTQSPASLSASVGETVTITCRASENIDSYLAWYQQKQGKSPQLLVYTATLLADGVPSRFSGSGSGTQYSLKINSLQSEDVARYYCQHYYSTPPTFGSGTKLEIKR | 0.026 | 2.12 |  | 
CHI-CDH6-11 (antibody, human IgG1, kappa, V domains shown, also called chimeric antibody of murine CDH6-11) VH: QIQLQQSGPELVKPGASVRISCKASGYTFTDYYITWVKLRPGQGLEWIGWIYPGSVNIKYNEKFKGKATLTVDTSSSTAYMQLNSLTSEDSAVYFCARGGYSWFPYWGQGTLVTVSA VL: NIVMTQSPKSMSMSVGERVTLSCKASENVHTYVSWYQQKPEQSPKLLFYGASTRNTGVPDRFTGSGSATDFTLTISSVQAEDLADYYCGQSYSYPYTFGSGTKLEIKR | 0.032 | 2.32 |  | 
CHI-CDH6-2 (antibody, human IgG1, kappa, V domains shown, also called chimeric antibody of murine CDH6-2) VH: EVQLQQSGPELVKPGASVRISCKASGYTFTDYYMNWVKQSHGKSLEWIGDIDPNNANTTYNQKFKGKATLTVDKSSSTAYMELRSLTSEDSAVYSCASFGYDVEWFGYWGQGTLVTVSA VL: QIVLTQSPALMSASPGEKVTMTCSASSSVSYMYWYQQKPRSSPKPWIYLTSNLASGVPARFSGSGSGTSYSLTISSMEAEDAATYYCQQWSSNPFTFGSGTKLEIKR | 0.022 | 2.12 |  | 
CHI-CDH6-13 (antibody, human IgG1, kappa, V domains shown, also called chimeric antibody of murine CDH6-13) VH: DVQLQESGPGLVKPSQSLSLTCSVTGYSITKDSYWNWIRQFPGSKLEWMGFISYDGSRHYNPSLKNRISITRDTSKNQFFLQLNSVTTEDTATYYCARRDYADYWGQGTTLTVSS VL: QIVLTQSPALMSAFPGEKVTMTCSATSSVSYIYWYQQKPRSSPKPWIYLTSNLASGVPARFSGSGSGTSYSLTINSLEAEDAATYYCQQWSSIPYTFGGGTKLEIKR | 0.017 | 2.72 |  | 
CHI-CDH6-1 (antibody, human IgG1, kappa, V domains shown, also called CHI-hCDH6-1; CH1-CDH6-1) VH: QVQLQQPGAELVRPGSSVKLSCKASGYTFTNYWMHWVKQRPIEGLEWIGDIDPSHSETHYTQKFKDKATLTVDKSSSTAYMQLSSLTSEDSAVYYCARGDLGRFDYWGQGTTLTVSS VL: DIVLTQSPASLAVSLGQRATISCRASESVSIHGTHLMHWYQQKSGQPPKLLIYAASNLESGVPARFSGSGSETDFTFNIHPVEEEDAATYFCQQSFEDPWTFGGGTKLEIKR | 0.023 | 2.54 | 84 | 30000
CHI-CDH6-10 (antibody, human IgG1, kappa, V domains shown, also called chimeric antibody of murine CDH6-10) VH: QVQLQQPGAELVKPGTSVKMSCKASGYTFTSDWIAWVKQRPGQGLEWIGDIYPGSGRTHNNEKFNFKATLTVDTSSNTAYMQLSSLTSEDSAVYFCARPMLGRFDYWGQGTTLTVSS VL: DIVLTQSPASLAVSLGQRATISCRASESVSIHGTHLMHWYQQKPGQPPKLLIYAASNLESGVPARFSGSGSETDFTLNIHPVEEEDAATYFCQQSFEDPFTFGSGTKLEIKR | 0.026 | 2.26 |  | 
CHI-CDH6-3 (antibody, human IgG1, kappa, V domains shown, also called CH1-CDH6-3; chimeric antibody of murine CDH6-3) VH: QVQLQQPGAELVKPGASVKLSCKASGYTFTSYWIHWVKQRPGQGLEWIGEINPSNGVTNCNENFKSKATLTVDKSSSTAYMQLSSLTSEDSAVYYCTIPNLLWWYFDVWGAGTTVTVSS VL: DIQMTQSPASLSVSVGETVTITCRASENIYSNLAWYQQKQGKSPQLLVYEATNLADGVPSRFSGSGSGTQYSLKINSLQSEDFGSYYCQHFWGTLWTFGGGTKLEIKR | 0.041 | 2.64 | 11100 | 16800
CHI-CDH6-4 (antibody, human IgG1, kappa, V domains shown, also called CH1-CDH6-4; chimeric antibody of murine CDH6-4) VH: QVQLQQSGPELVKPGASVKISCKASGYAFSNFWMNWVKQRPGKGLEWIGWIYPGDGDTNYNGKFKDKATLTADKSSSTAYIQLSSLTSEDSAVYFCARLYDAWGFFDYWGQGTTLTVSS VL: QIVLTQSPAIMSASPGQKVTITCSASSSVNYMHWYQQKLGSSPKLWIYDKSKLAPGVPARFSGSGSGTSYSLTISSMEAEDAASYFCHQWSSYPPMTFGGGTKLEIKR | 0.034 | 2.23 | 10200 | 22200
